Values of other authors, collected in doi:10.1101/2021.01.30.427993.

System: Glu165
Details: not stated ('in the active site')

Triosephosphate isomerase (TIM)
pKa: 3.9
